Entries after “also recorded” stand apart in the source; their conditions may differ.
B1: Caldicellulosiruptor saccharolyticus (Csac) GH5 cellobiohydrolase domain, construct C (CsacF7-4), amino acids 507-1039 of Csac CBH, SEQ ID NO:3 … (protein)
chain: MFKSGAGQLQPGKDTGEIQIRFNKSDWSNYNQGNDWSWLQSMTSYGENEKVTAYIDGVLVWGQEPSGATPAPTMTVAPTATPTPTLSPTVTPTPAPTQTAIPTPTLTPNPTPTSSIPDDTNDDWLYVSGNKIVDKDGRPVWLTGINWFGYNTGTNVFDGVWSCNLKDTLAEIANRGFNLLRVPISAELILNWSQGIYPKPNINYYVNPELEGKNSLEVFDIVVQTCKEVGLKIMLDIHSIKTDAMGHIYPVWYDEKFTPEDFYKACEWITNRYKNDDTIIAFDLKNEPHGKPWQDTTFAKWDNSTDINNWKYAAETCAKRILNINPNLLIVIEGLEAYPKDDVTWTSKSSSDYYSTWWGGNLRGVRKYPINLGKYQNKVVYSPHDYGPSVYQQPWFYPGFTKESLLQDCWRPNWAYLMEENIAPLLIGEWGGHLDGADNEKWMKYLRDYIIENHIHHTFWCFNANSGDTGGLVGYDFTTWDEKKYSFLKPALWQDSQGRFVGLDHKRPLGTNGKNINITTYYNNNEPEPVPASK
notes: C-terminal V5 and His6 tags (pDEST42); E. coli BL21(DE3) Star; purified
B2: Caldicellulosiruptor saccharolyticus (Csac) CBM3-GH5 cellobiohydrolase, construct E (CsacF7-6), amino acids 374-1039 of Csac CBH, SEQ ID NO:4 … (protein)
chain: MGVTTSSPTPTPTPTVTVTPTPTPTPTPTVTATPTPTPTPVSTPATGGQIKVLYANKETNSTTNTIRPWLKVVNSGSSSIDLSRVTIRYWYTVDGERAQSAVSDWAQIGASNVTFKFVKLSSSVSGADYYLEIGFKSGAGQLQPGKDTGEIQIRFNKSDWSNYNQGNDWSWLQSMTSYGENEKVTAYIDGVLVWGQEPSGATPAPTMTVAPTATPTPTLSPTVTPTPAPTQTAIPTPTLTPNPTPTSSIPDDTNDDWLYVSGNKIVDKDGRPVWLTGINWFGYNTGTNVFDGVWSCNLKDTLAEIANRGFNLLRVPISAELILNWSQGIYPKPNINYYVNPELEGKNSLEVFDIVVQTCKEVGLKIMLDIHSIKTDAMGHIYPVWYDEKFTPEDFYKACEWITNRYKNDDTIIAFDLKNEPHGKPWQDTTFAKWDNSTDINNWKYAAETCAKRILNINPNLLIVIEGLEAYPKDDVTWTSKSSSDYVSTWWGGNLRGVRKYPINLGKYQNKVVYSPHDYGPSVYQQPWFYPGFTKELLQDCWRPNWAYLMEENIAPLLIGEWGGHLDGADNEKWMKYLRDYIIENHIHHTFWCFNANSGDTGGLVGYDFTTWDEKKYSFLKPALWQDSQGRFVGLDHKRPLGTNGKNINITTYYNNNEPEPVPASK
notes: as for B1
B3: CBH protein: Protein encoded by the YP_001179883 gene of Caldicellulosiruptor saccharolyticus, domains GH10, CBM3, GH5 (SEQ ID NO:2) (protein, listed as Caldicellulosiruptor saccharolyticus)
chain: MKRNLFRIVSRVVLIAFIASISLVGAMSYFPVETQAAPDWSIPSLCESYKDDFMIGVAIPARCLSNDTDKRMVLKHFNSITAENEMKPESLLAGQTSTGLSYRFSTADAFVDFASTNKIGIRGHTLVWHNQTPDWFFKDSNGQRLSKDALLARLKQYIYDVVGRYKGKVYAWDVVNEAIDENQPDSYRRSTWYEICGPEYIEKAFIWAHEADPNAKLFYNDYNTEISKKRDFIYNMVKNLKSKGIPIHGIGMQCHINVNWPSVSEIENSIKLFSSIPGIEIHITELDMSLYNYGSSENYSTPPQDLLQKQSQKYKEIFTMLKKYKNVVKSVTFWGLKDDYSWLRSFYGKNDWPLLFFEDYSAKPAYWAVLEASGVTTSSPTPTPTPTVTVTPTPTPTPTPTVTATPTPTPTPVSTPATGGQIKVLYANKETNSTTNTIRPWLKVVNSGSSSIDLSRVTIRYWYTVDGERAQSAVSDWAQIGASNVTFKFVKLSSSVSGADYYLEIGFKSGAGQLQPGKDTGEIQIRFNKSDWSNYNQGNDWSWLQSMTSYGENEKVTAYIDGVLVWGQEPSGATPAPTMTVAPTATPTPTLSPTVTPTPAPTQTAIPTPTLTPNPTPTSSIPDDTNDDWLYVSGNKIVDKDGRPVWLTGINWFGYNTGTNVFDGVWSCNLKDTLAEIANRGFNLLRVPISAELILNWSQGIYPKPNINYYVNPELEGKNSLEVFDIVVQTCKEVGLKIMLDIHSIKTDAMGHIYPVWYDEKFTPEDFYKACEWITNRYKNDDTIIAFDLKNEPHGKPWQDTTFAKWDNSTDINNWKYAAETCAKRILNINFNLLIVIEGIEAYPKDDVTWTSKSSSDYYSTWWGGNLRGVRKYPINLGKYQNKVVYSPHDYGPSVYQQPWFYPGFTKESLLQDCWRPNWAYIMEENIAPLLIGEWGGHLDGADNEKWMKYLRDYIIENHIHHTFWCFNANSGDTGGLVGYDFTTWDEKKYSFLKPALWQDSQGRFVGLDHKRPLGTNGKNINITTYYNNNEPEPVPASK

Key:
[1] = molecular target: GH5 (Caldicellulosiruptor saccharolyticus, UniProt A4XIF7); assay: Product inhibition by cellobiose of pNPC hydrolysis; format: biochemical; settings: 5 mM pNPC, optimal condition; read-out: IC50 of cellobiose on CBH activity
Experimental: (§1) To examine the catalytic activity of GH5 in detail, the hydrolysis of nitrophenol from 4-nitrophenyl-β-D-cellobioside (pNPC) and 4-nitrophenyl-β-D-glucopyranoside (pNPG) are measured. Under the optimum reaction condition that is previously found (80° C. and pH 5.5), pNPC was hydrolyzed by both CBM3-GH5 and GH5. […] The product inhibition by cellobiose is examined by adding unlabeled cellobiose into reaction mixtures containing 5 mM of pNPC. The IC50 inhibition constant for cellobiose on the catalytic activity of GH5 is found at c.a. 30 mM. The kinetics of pNPC hydrolysis by CBM3-GH5 and GH5 are compared to see whether the CBM3 domain can influence the catalytic activity of the GH5 domain on a soluble substrate.
(§2) GH5 and CBM3-GH5 (constructs C and E, respectively) are tested to determine the influence of product and ionic strength on CBH activity.

[2] = Enzymatic activity on CMC under different pH and temperature, DNS assay; format: biochemical
Experimental: To determine the optimum conditions for the enzymatic activity of GH5 on CMC under different pH and temperature ranges was measured by DNS assay. The maximum activity is observed at 80° C. and at pH between 4.7 and 5.5; the optimum conditions of the GH5 activity on CMC is at a higher temperature and at a lower pH than the optimum growth conditions of C. sac (70° C., at neutral pH). In addition, Csac GH5 is also active on 4-nitrophenyl β-D-cellobioside, but not active on 4-nitrophenyl β-D-glucopyranoside (up to 1 hr incubation). Therefore, GH5 is a cellobiohydrolase/exoglucanase that produces cellobiose.

[3] = Hydrolysis of pNPC, kinetics by Eadie-Hofstee plots; format: biochemical; settings: 80° C. and pH 5.5
Experimental: as §1

[4] = Hydrolysis of pNPG (β-glucosidase activity); format: biochemical; settings: 80° C. and pH 5.5, up to one hour
Experimental: as §1

[5] = Effect of IL concentration on CBH activity, CMC substrate, DNS; format: biochemical; settings: EMIM acetate
Experimental: GH5 and CBM3-GH5 (constructs C and E, respectively) are tested to determine the effect of IL concentration on the CBH activity of GH5. Carboxymethyl cellulose (CMC) is used as the substrate for the enzymatic reaction, and the amount of released products containing reducing ends is measured by DNS. The CBH activity remains fairly highly from 0% to more than 20% EMIM acetate. From 25% EMIM acetate the CBH activity starts to decrease and the CBH activity diminished at about 60% EMIM acetate.

[6] = Enzyme digestion of solid substrates, products by HPAEC; format: biochemical; settings: 30 mg substrate, 10 μg protein, 80° C., pH 5.5, 17 hours
Experimental: The effect of CBM3 on the cellobiohydrolase activity on solid substrates by GH5 is tested on Avicel and corn stover. These solid substrates are pretreated with the ionic liquid 1-ethyl-3-methylmidazolium acetate ([C2mim][OAc]). […] Enzyme digestion is performed by mixing 30 mg of substrate and 10 μg of protein in 0.5 mL volume and incubating at 80° C. and pH 5.5 for 17 hours. GH5 and CBM3-GH5 are able to produce more cellobiose and glucose from pre-treated Avicel than untreated Avicel.

[7] = CMCase activity of constructs; format: biochemical
Text: (§3) CBH is a modular cellulolytic gene from a hyperthermophilic and anaerobic bacterium Caldicellulosiruptor saccharolyticus (C. Sac), which contains the glycoside hydrolase family 10 (GH10), carbohydrate binding module family 3 (CBM3), and glycoside hydrolase family 5 (GH5) domains in a single open reading frame (ORF). We have expressed, purified, and characterized the function of the recombinant GH5 with and without CBM3 domain. The nucleotide sequence of the ORF is codon-optimized and then synthesized for protein expression in E. coli. The translated products contain c-terminal V5 epitope and His (×6) tags from the pDEST42 vector sequence. The recombinant proteins CBM3-GH5 and GH5 are expressed in BL21(DE3)Star E. coli and purified by affinity (HisTrap FF) and ion-exchange (HiTrap Q) chromatography methods. The average yields are 4 mg and 3 mg per liter, respectively.

[8] = CBH (cellobiohydrolase or exoglucanase) activity of constructs; format: biochemical
Text: as §3

[9] = substrate: O=[N+]([O-])c1ccc(O[C@@H]2O[C@H](CO)[C@@H](O[C@@H]3O[C@H](CO)[C@@H](O)[C@H](O)[C@H]3O)[C@H](O)[C@H]2O)cc1; assay: hydrolysis kinetics of 4-nitrophenyl-β-D-cellobioside (pNPC) by GH5 (Eadie-Hofstee plots); format: biochemical, Caldicellulosiruptor saccharolyticus
Text: as §3, §1

[10] = Influence of ionic strength (NaCl) on CBH activity; format: biochemical; settings: 2.3 M NaCl
Experimental: as §2

[11] = substrate: O=[N+]([O-])c1ccc(O[C@@H]2O[C@H](CO)[C@@H](O[C@@H]3O[C@H](CO)[C@@H](O)[C@H](O)[C@H]3O)[C@H](O)[C@H]2O)cc1; assay: hydrolysis kinetics of 4-nitrophenyl-β-D-cellobioside (pNPC) by CBM3-GH5 (Eadie-Hofstee plots); format: biochemical, Caldicellulosiruptor saccharolyticus; settings: other: pNPC, 80° C., pH 5.5, Eadie-Hofstee plot
Text: as §3, §1

[12] = other: 80° C., 50 mM MES, pH 5.5 (general description of the enzyme)
[13] = other: pNPC, 80° C., pH 5.5, Eadie-Hofstee plot

GH5, sequence (A4XIF7 entry or part of it): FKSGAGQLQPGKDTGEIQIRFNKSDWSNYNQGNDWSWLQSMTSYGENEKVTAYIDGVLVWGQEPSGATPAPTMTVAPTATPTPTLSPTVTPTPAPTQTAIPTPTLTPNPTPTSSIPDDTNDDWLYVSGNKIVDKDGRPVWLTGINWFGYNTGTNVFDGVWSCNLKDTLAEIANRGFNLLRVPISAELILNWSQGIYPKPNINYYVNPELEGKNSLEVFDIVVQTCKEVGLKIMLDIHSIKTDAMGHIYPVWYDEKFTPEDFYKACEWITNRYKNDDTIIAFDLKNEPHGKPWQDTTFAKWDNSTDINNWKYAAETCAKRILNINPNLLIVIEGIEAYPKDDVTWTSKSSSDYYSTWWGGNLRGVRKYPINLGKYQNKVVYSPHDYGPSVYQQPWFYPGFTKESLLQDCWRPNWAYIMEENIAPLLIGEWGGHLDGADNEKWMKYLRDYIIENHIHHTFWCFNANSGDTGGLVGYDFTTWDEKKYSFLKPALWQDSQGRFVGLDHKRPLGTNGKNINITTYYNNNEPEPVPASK

Molecule	IC50 [1]	Temperature of maximum (optimal) activity [2]	pH of maximum (optimal) activity [2]	Activity on pNPC [3]	Activity on pNPG [4]	IL concentration at which CBH activity diminished [5]	IL concentration from which CBH activity starts to decrease [5]	IL concentration up to which the enzyme is active/tolerant [5]	Sugar released from solid substrates [6]	CMCase activity [7]	CBH activity (cellobiohydrolase or exoglucanase) [8]	Km [9, 12]	Vmax [9, 12]	Km [9, 13]	Vmax [9, 13]	kcat [9, 13]	Residual CBH activity [10]	Km [11]	Vmax [11]	kcat [11]
O=C[C@H](O)[C@@H](O)[C@H](O[C@@H]1O[C@H](CO)[C@@H](O)[C@H](O)[C@H]1O)[C@H](O)CO [cellobiose]	~30 mM																			
B1		80 °C	4.7-5.5	active; also recorded: hydrolyzed	not active; also recorded: not hydrolyzed	about 60%	25%	up to 50%	can produce both cellobiose and glucose; also recorded: cellobiose is the predominant sugar released	Yes	Yes	2200 µM	0.71 µmol/min/mg	2400 µM	0.62 µmol/min/mg	0.817 s⁻¹				
B2				hydrolyzed	not hydrolyzed	about 60%	25%		cellobiose is the predominant sugar released; also recorded: produced more cellobiose than GH5	Yes	Yes						at least 80%	2200 µM	0.71 µmol/min/mg	0.767 s⁻¹
B3		about 80 °C						up to 50%												

— US9624482B2, “Thermophilic cellobiohydrolase” (Sandia Corporation, priority 2009, dated 2017)
